Data on 1 substance can be found in US20190062399A1.

The test has as its target B7-1Ig (CD80-Ig fusion protein) (UniProt P33681). Description: SPR kinetics (Biacore), 75-200 nM analyte over B7-1Ig chip (694 RU).
Chain of UniProt P33681 (P33681 35-242 limits assumed): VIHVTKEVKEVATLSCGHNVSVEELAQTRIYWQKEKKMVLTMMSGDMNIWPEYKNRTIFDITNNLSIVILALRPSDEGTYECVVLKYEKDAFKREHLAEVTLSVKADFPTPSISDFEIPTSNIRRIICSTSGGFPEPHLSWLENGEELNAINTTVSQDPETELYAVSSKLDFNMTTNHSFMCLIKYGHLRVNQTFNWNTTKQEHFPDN

Chain of Protein A eluate of the HIC cleaning peak (mixture of all CTLA4-Ig species) (chain): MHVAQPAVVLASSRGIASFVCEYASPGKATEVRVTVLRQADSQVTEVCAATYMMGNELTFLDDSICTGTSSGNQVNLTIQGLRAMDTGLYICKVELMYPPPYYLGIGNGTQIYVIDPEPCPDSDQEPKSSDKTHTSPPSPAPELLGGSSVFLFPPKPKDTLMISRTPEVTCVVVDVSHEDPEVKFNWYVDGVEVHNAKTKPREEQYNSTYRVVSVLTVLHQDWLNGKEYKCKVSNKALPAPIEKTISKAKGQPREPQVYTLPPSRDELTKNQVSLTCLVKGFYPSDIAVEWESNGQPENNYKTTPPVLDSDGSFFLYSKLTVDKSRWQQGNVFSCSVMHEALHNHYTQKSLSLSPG

As for “Protein A eluate of the HIC cleaning peak (mixture of all CTLA4-Ig species)”, the Ka worked out at 3.87e+07 M⁻¹, the Kd is 0.0258 µM, the dissociation rate constant (koff) was 0.00973 s⁻¹ and the on-rate (kon) came to 377000 M⁻¹ s⁻¹.
